T1: ProtA-tagged GLABRA3 (GL3) (Arabidopsis thaliana, UniProt Q9FN69 1-637)
T1 construct: GLABRA3 (GL3), basic helix-loop-helix (bHLH)-like transcription factor, Arabidopsis thaliana; Backbone pTREXdest30; The results write 'GL3-ProtA', but the methods say that the tag is fused to the N-terminus; also called GL3-ProtA; ProtA-tagged GL3; source: HEK293TM cells, transiently expressed, in lysate; not shown: Staphylococcus aureus protein A, N-terminal, kept
T1 sequence (looked up): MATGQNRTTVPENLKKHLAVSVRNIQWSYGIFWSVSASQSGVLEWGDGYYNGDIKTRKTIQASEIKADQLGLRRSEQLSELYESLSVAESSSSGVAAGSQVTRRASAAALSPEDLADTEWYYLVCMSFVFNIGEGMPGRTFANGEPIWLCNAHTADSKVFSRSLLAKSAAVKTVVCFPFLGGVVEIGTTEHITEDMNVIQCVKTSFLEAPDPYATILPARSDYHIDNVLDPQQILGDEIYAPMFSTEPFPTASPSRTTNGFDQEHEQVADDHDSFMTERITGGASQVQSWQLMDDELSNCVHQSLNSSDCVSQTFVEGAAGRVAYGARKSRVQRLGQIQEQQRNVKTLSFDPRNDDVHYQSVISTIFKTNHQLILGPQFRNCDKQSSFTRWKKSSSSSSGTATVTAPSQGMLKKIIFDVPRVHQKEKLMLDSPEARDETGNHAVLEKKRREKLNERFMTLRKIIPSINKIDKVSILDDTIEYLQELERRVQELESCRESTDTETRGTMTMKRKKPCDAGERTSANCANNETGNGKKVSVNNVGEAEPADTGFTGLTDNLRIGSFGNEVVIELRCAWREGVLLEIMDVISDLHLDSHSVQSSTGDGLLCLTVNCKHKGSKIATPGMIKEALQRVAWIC


Target: T1, ProtA-tagged GLABRA3 (GL3)
Assay: pull-down; LUMIER pull-down: raw HEK293TM extracts of ProtA-tagged GL3 and a Renilla-tagged protein mixed, dilution series of the ratio, Renilla luminescence on the beads; ratios from HA Western blots; single-site reversible binding model; KD dimensionless and relative to the total GL3 concentration
Conditions: partners not purified

Binder | relative KD (KD divided by total GL3)
Renilla-tagged TRANSPARENT TESTA GLABRA1 (TTG1) (natural protein, Arabidopsis thaliana, UniProt Q9XGN1 1-341, looked up, TRANSPARENT TESTA GLABRA1 (TTG1), WD40 protein, Arabidopsis thaliana; Backbone pTREXdest30; also called TTG1-Renilla; Renilla-tagged TTG1; source: HEK293TM cells, transiently expressed, in lysate; not shown: Renilla reniformis luciferase (Rluc), N-terminal, kept) MDNSAPDSLSRSETAVTYDSPYPLYAMAFSSLRSSSGHRIAVGSFLEDYNNRIDILSFDSDSMTVKPLPNLSFEHPYPPTKLMFSPPSLRRPSSGDLLASSGDFLRLWEINEDSSTVEPISVLNNSKTSEFCAPLTSFDWNDVEPKRLGTCSIDTTCTIWDIEKSVVETQLIAHDKEVHDIAWGEARVFASVSADGSVRIFDLRDKEHSTIIYESPQPDTPLLRLAWNKQDLRYMATILMDSNKVVILDIRSPTMPVAELERHQASVNAIAWAPQSCKHICSGGDDTQALIWELPTVAGPNGIDPMSVYSAGSEINQLQWSSSQPDWIGIAFANKMQLLRV | 1 dimensionless, relative to the total GL3 concentration
Renilla-tagged GLABRA1 (GL1) (natural protein, Arabidopsis thaliana, UniProt P27900 1-228, looked up, GLABRA1 (GL1), R2R3MYB, Arabidopsis thaliana; Backbone pTREXdest30; also called GL1-Renilla; GL1Renilla; source: HEK293TM cells, transiently expressed, in lysate; not shown: Renilla reniformis luciferase (Rluc), N-terminal, kept) MRIRRRDEKENQEYKKGLWTVEEDNILMDYVLNHGTGQWNRIVRKTGLKRCGKSCRLRWMNYLSPNVNKGNFTEQEEDLIIRLHKLLGNRWSLIAKRVPGRTDNQVKNYWNTHLSKKLVGDYSSAVKTTGEDDDSPPSLFITAATPSSCHHQQENIYENIAKSFNGVVSASYEDKPKQELAQKDVLMATTNDPSHYYGNNALWVHDDDFELSSLVMMNFASGDVEYCL | 0.5 dimensionless, relative to the total GL3 concentration
Renilla-tagged TRIPTYCHON (TRY) (natural protein, Arabidopsis thaliana, UniProt Q8GV05 1-106, looked up, TRIPTYCHON (TRY), R3MYB, Arabidopsis thaliana; Backbone pTREXdest30; also called TRY-Renilla; source: HEK293TM cells, transiently expressed, in lysate; not shown: Renilla reniformis luciferase (Rluc), N-terminal, kept) MDNTDRRRRRKQHKIALHDSEEVSSIEWEFINMTEQEEDLIFRMYRLVGDRWDLIAGRVPGRQPEEIERYWIMRNSEGFADKRRQLHSSSHKHTKPHRPRFSIYPS | 2.7 dimensionless, relative to the total GL3 concentration
Renilla-tagged CAPRICE (CPC) (natural protein, Arabidopsis thaliana, UniProt O22059 1-94, looked up, CAPRICE (CPC), R3MYB, Arabidopsis thaliana; Backbone pTREXdest30; also called CPC-Renilla; source: HEK293TM cells, transiently expressed, in lysate; not shown: Renilla reniformis luciferase (Rluc), N-terminal, kept) MFRSDKAEKMDKRRRRQSKAKASCSEEVSSIEWEAVKMSEEEEDLISRMYKLVGDRWELIAGRIPGRTPEEIERYWLMKHGVVFANRRRDFFRK | 2.3 dimensionless, relative to the total GL3 concentration

Source: article PMC10948613 (Frontiers in Plant Science, 2024)
